Experimental data: PMC6171931

Target: HCV NS5B (RNA-dependent RNA polymerase), JFH1 (Hepatitis C virus (JFH1))
Assay: proximity ligation

With “ATG5-12 conjugate (from UniProt Q9H1Y0 1-275; O94817 1-140) (complex)” the PLA interaction signals per infected cell (signals per infected cell) was 380.
